Source: publication PMC4119789

Target: H3K4AK9me2 peptide
Assay: ITC

B1: SAWADEE domain of atSHH1 (residues 125-258) (domain or fragment)
chain: ADLAFEAKSARDYAWYDVSSFLTYRVLRTGELEVRVRFSGFDNRHDEWVNVKTSVRERSIPVEPSECGRVNVGDLLLCFQEREDQALYCDGHVLNIKRGIHDHARCNCVFLVRYELDNTEESLGLERICRRPEE
fold weaker affinity than for the H3K9me2 peptide: 30 fold
